Reference: patent US20240360201A1 (BIOCYTOGEN PHARMACEUTICALS BEIJING, published 2024)
Blank lines part the entries; values can stand above or below the binder they belong to.

What was measured:
[1] = target: T1, FcγRIIA-H167-Acro (human, UniProt P12318 36-218, limits assumed); experiment: SPR (Biacore T200, protein A sensor chip), binding to FcγRIIA-H167-Acro
T1 construct: bought; His at 167; also called Human Fc gamma RIIA/CD32a (H167) Protein, His Tag
T1 sequence (looked up): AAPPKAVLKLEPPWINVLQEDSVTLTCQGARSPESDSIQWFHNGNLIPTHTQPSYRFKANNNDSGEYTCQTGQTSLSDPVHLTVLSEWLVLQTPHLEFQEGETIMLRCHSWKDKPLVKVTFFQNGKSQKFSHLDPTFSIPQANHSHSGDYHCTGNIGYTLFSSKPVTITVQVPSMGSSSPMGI
Excerpt: (§1) The Fc receptors included FcγRIIB (FcγRIIB-Acro), FcγRIIA (FcγRIIA-H167-Acro), FcγRIIIA (FcγRIIIA-V176-Acro), FcγRIIIB (FcγRIIIB-NA1-Acro), FcγRI (FcγRI-Sino), and FcRn (FcRn-Acro).
(§2) The Fc receptors included FcγRI (FcγRI-Sino), FcγRIIA (FcγRIIA-H167-Acro and FcγRIIA-R167), FcγRIIB, FcγRIIIA (FcγRIIIA-F176 and FcγRIIIA-V176-Acro), and FcγRIIIB (FcγRIIIB-NA1-Acro).

[2] = target: human CD40 (hCD40-his) (human, UniProt P25942 21-193); experiment: SPR Biacore T200; binder captured on protein A chip, target as analyte
Sequence of human CD40 (hCD40-his) (P25942 21-193 limits assumed): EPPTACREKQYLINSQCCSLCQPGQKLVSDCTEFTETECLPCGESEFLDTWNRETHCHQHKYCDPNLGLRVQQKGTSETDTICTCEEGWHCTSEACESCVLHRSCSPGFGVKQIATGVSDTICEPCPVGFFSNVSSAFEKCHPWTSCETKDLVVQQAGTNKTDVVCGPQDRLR
Experimental: Binding affinity to human CD40 of the obtained fusion proteins PDL1-C40-6A7-FV3A (IgG1), PDL1-C40-6A7-FV3A-IgG4, PDL1-C40-6A7-FV3C (IgG1), PDL1-C40-6A7-FV3A1 (IgG1), PDL1-C40-6A7-FV3A2 (IgG1), and PDL1-C40-6A7-FV3A3 (IgG1) were determined by surface plasmon resonance (SPR) using Biacore™ T200 biosensor equipped with pre-immobilized protein A sensor chips. The original anti-CD40 monoclonal antibody C40-6A7 IgG2 (6A7, VH SEQ ID NO: 91, VL SEQ ID NO: 92), which the scFV was derived from, was used as a control.

[3] = target: T2, FcγRIIIA-V176-Acro (human, UniProt P08637 17-208); experiment: SPR (Biacore T200, protein A sensor chip), binding to FcγRIIIA-V176-Acro
T2 construct: bought; Val at 176; also called Human Fc gamma RIIIA/CD16a (V176) Protein, His Tag
T2 sequence (P08637 17-208 F176V limits assumed): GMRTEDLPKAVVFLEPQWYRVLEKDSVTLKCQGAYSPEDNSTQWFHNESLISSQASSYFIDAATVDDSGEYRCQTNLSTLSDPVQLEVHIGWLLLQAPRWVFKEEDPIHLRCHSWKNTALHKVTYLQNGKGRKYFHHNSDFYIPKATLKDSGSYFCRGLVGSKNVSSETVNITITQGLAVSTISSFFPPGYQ
Excerpt: as §1, §2

[4] = target: T3, FcγRIIA-R167 (human); experiment: SPR (Biacore T200, protein A sensor chip), binding to FcγRIIA-R167
T3 construct: recombinant, His tag; ACRO product; different from FcγRIIA-R167-Sino; also called Human Fc gamma RIIA/CD32a (R167) Protein, His Tag
Excerpt: as §1, §2

[5] = target: T4, FcγRIIB (human); experiment: SPR (Biacore T200, protein A sensor chip), binding to FcγRIIB
T4 construct: recombinant protein used as SPR analyte
T4 sequence (P31994 43-217): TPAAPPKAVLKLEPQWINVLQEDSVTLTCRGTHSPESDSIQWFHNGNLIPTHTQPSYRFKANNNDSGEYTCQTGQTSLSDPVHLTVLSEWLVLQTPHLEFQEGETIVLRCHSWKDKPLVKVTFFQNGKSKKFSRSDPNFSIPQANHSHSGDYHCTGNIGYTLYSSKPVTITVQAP
Excerpt: as §1, §2

[6] = target: T5, FcγRI-Sino (human, UniProt P12314 16-288, limits assumed); experiment: SPR (Biacore T200, protein A sensor chip), binding to FcγRI-Sino
T5 construct: bought; also called CD64 Protein, Human, Recombinant (His Tag)
T5 sequence (P12314 16-288 limits assumed): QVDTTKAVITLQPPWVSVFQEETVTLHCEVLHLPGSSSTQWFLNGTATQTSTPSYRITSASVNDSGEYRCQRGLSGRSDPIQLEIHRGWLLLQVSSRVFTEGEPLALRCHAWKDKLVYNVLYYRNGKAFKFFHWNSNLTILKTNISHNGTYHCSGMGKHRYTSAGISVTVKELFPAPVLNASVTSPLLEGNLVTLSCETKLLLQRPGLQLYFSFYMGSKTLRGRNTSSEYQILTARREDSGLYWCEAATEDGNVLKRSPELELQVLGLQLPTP
Excerpt: as §1, §2

[7] = target: T6, FcγRIIA-R167-Sino (human, UniProt P12318 34-218, limits assumed); experiment: SPR Biacore T200; binder captured on protein A chip, Fc receptor as analyte
T6 construct: bought; Arg at 167; also called FCRIIA-R167-Sino; CD32A Protein, Human, Recombinant (167 Arg, His Tag)
T6 sequence (looked up): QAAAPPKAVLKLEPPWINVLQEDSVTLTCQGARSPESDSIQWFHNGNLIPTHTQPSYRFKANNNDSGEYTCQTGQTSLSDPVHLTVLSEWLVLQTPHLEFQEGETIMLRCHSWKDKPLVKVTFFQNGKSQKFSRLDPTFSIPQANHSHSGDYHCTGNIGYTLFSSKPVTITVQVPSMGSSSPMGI
Experimental: (§3) Binding affinities of the fusion proteins PDL1-TGFbR2-3A (IgG1) (or PDL1-TGFbR2-3A-IgG1) and PDL1-TGFbR2-3A-IgG4 to human Fc receptors were measured by surface plasmon resonance (SPR) using Biacore™ T200 biosensor equipped with pre-immobilized protein A sensor chips. The Fc receptors included FcγRI-Sino, FcγRIIA-R167-Sino, FcγRIIIA-F176-Sino, FcγRIIIB-Sino, and FcγRn. A humanized CTLA4 antibody CT4-4G12-IgG1 (CT4-4G12, or 4G12; VH SEQ ID NO: 44, VL SEQ ID NO: 45) was used as a control to test binding affinity to FcγRn.

[8] = target: T5, FcγRI-Sino; experiment: as above
Experimental: as §3

[9] = target: T7, FcγRIIIB-Sino (human, UniProt O75015 17-200, limits assumed); experiment: as above
T7 construct: bought; also called FCRIIIB-Sino; CD16b Protein, Human, Recombinant (NA1 allotypes, His Tag)
T7 sequence (O75015 other isoform, or with tags, fused parts or gaps limits assumed): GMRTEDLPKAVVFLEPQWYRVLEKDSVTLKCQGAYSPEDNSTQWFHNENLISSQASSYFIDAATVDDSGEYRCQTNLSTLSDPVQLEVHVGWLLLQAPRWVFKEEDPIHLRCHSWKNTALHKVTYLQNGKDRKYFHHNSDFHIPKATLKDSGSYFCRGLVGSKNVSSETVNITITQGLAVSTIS
Experimental: as §3

[10] = target: T8, FcRn (human, UniProt P55899 24-297; P61769 21-119); experiment: as above
T8 construct: bought; also called FcγRn; FcRn-Acro
Experimental: as §3

[11] = target: T9, TGFb1 (Homo sapiens (Human), UniProt P01137 279-390, Active TGF-beta-1 is a disulfide-linked homodimer of this chain; one copy is given.); experiment: SPR; binder as capture solution, TGFb1 as analyte
T9 construct: also called TGFb1 protein
T9 sequence (P01137 279-390 limits assumed): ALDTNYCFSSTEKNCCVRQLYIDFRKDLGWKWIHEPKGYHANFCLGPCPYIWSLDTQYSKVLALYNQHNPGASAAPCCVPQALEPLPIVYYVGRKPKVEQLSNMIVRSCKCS

[12] = target: T10, 6×Histidine-tagged human PD-L1 protein (hPDL1-His) (human, UniProt Q9NZQ7 19-238); experiment: SPR Biacore T200; binder captured on protein A chip, target as analyte
T10 construct: also called hPL1-His; His-tagged human PD-L1
T10 sequence (Q9NZQ7 19-238 limits assumed): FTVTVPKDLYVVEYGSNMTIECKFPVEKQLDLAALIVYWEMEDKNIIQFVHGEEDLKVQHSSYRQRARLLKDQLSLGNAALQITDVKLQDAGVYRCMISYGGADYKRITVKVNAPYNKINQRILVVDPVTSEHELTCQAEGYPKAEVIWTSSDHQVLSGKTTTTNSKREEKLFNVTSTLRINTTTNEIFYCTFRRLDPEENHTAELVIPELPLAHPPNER
Experimental: Binding affinities of the fusion proteins against human CTLA4 (hCTLA4-His) or human PD-L1 (hPDL1) were measured by surface plasmon resonance (SPR) using Biacore™ T200 biosensor equipped with pre-immobilized protein A sensor chips. A CTLA4 antibody CT4-4G12-IgG1 (CT4) was used as a control. ATOR1015-CD86 (CD86) and KN035-IgG1 (with D265A mutation in heavy chain constant domain) were also used as controls.

[13] = target: T11, FcγRIIIB-NA1-Acro (human, UniProt O75015 17-200, limits assumed); experiment: SPR (Biacore T200, protein A sensor chip), binding to FcγRIIIB-NA1-Acro
T11 construct: bought; also called Human Fc gamma RIIIB/CD16b (NA1) Protein, His Tag
T11 sequence (O75015 other isoform, or with tags, fused parts or gaps limits assumed): as the sequence (O75015 other isoform, or with tags, fused parts or gaps limits assumed) above
Excerpt: as §1, §2

[14] = target: T12, FcγRIIIA-F176 (human, UniProt P08637); experiment: SPR (Biacore T200, protein A sensor chip), binding to FcγRIIIA-F176
T12 construct: recombinant, His tag; ACRO product; different from FcγRIIIA-F176-Sino; also called Human Fc gamma RIIIA/CD16a (F176) Protein, His Tag
T12 sequence (P08637 17-208 limits assumed, form in doubt): as the sequence (P08637 17-208 F176V limits assumed) above, with V160F counted along it
Excerpt: as §1, §2

- Kd [1]: 1130 nM
- Kd [2]: 0.852 nM
- koff [2]: 0.000432 s⁻¹
- kon [2]: 507000 M⁻¹ s⁻¹
- Kd [3]: 75.3 nM
- Kd [4]: 706 nM
- Kd [5]: 766 nM
- Kd [6]: 1.22 nM
B1: PDL1-C40-6A7-FV3A-IgG4 (bispecific antibody)
heavy: EVQLLESGGGLVQPGGSLRLSCAASGFTFSSYIMMWVRQAPGKGLEWVSSIYPSGGITFYADTVKGRFTISRDNSKNTLYLQMNSLRAEDTAVYYCARIKLGTVTTVDYWGQGTLVTVSSASTKGPSVFPLAPCSRSTSESTAALGCLVKDYFPEPVTVSWNSGALTSGVHTFPAVLQSSGLYSLSSVVTVPSSSLGTKTYTCNVDHKPSNTKVDKRVESKYGPPCPPCPAPEFLGGPSVFLFPPKPKDTLMISRTPEVTCVVVDVSQEDPEVQFNWYVDGVEVHNAKTKPREEQFNSTYRVVSVLTVLHQDWLNGKEYKCKVSNKGLPSSIEKTISKAKGQPREPQVYTLPPSQEEGGGGSGGGGSDVVMTQSPLSLPVTLGQPASISCRSSQSLLHSNGNTYLHWYQQRPGQSPNHLIYQVSNRFSGVPDRFSGSGSGTDFTLKISRVEAEDVGVYFCSQTTHVPWTFGCGTKVEIKGGGGSGGGGSGGGGSGGGGSQVQLVQSGAEVKKPGASVKLSCKASGYTFISYYIYWVKQAPGQCLEWIGGINPRNGGTNFNEKFKSRATLTVDTSISTAYMELSRLRSEDTAVYYCTRHGNGVYWGQGTTLTVSSGGGGSGGGGSVSLTCLVKGFYPSDIAVEWESNGQPENNYKTTPPVLDSDGSFFLYSRLTVDKSRWQEGNVFSCSVMHEALHNHYTQKSLSLSLGK
light: QSALTQPASVSGSPGQSITISCTGTSSDVGGYNYVSWYQQHPGKAPKLMIYDVSNRPSGVSNRFSGSKSGNTASLTISGLQAEDEADYYCSSYTSSSTRVFGTGTKVTVLGQPKANPTVTLFPPSSEELQANKATLVCLISDFYPGAVTVAWKADGSPVKAGVETTKPSKQSNNKYAASSYLSLTPEQWKSHRSYSCQVTHEGSTVEKTVAPTECS
notes: IgG4 subtype of PDL1-C40-6A7-FV3A; also called G5

- Kd [7]: 844 nM
- Kd [8]: 14.5 nM
- Kd [9]: 1330 nM
- Kd [10]: 19.4 nM
- Kd [11]: 37.3 nM
- koff [11]: 0.00573 s⁻¹
- kon [11]: 154000 M⁻¹ s⁻¹
B2: PDL1-TGFbR2-3A (antibody)
heavy: EVQLLESGGGLVQPGGSLRLSCAASGFTFSSYIMMWVRQAPGKGLEWVSSIYPSGGITFYADTVKGRFTISRDNSKNTLYLQMNSLRAEDTAVYYCARIKLGTVTTVDYWGQGTLVTVSSASTKGPSVFPLAPSSKSTSGGTAALGCLVKDYFPEPVTVSWNSGALTSGVHTFPAVLQSSGLYSLSSVVTVPSSSLGTQTYICNVNHKPSNTKVDKKVEPKSCDKTHTCPPCPAPELLGGPSVFLFPPKPKDTLMISRTPEVTCVVVDVSHEDPEVKFNWYVDGVEVHNAKTKPREEQYNSTYRVVSVLTVLHQDWLNGKEYKCKVSNKALPAPIEKTISKAKGQPREPQVYTLPPSRDEGGGGSGGGGSIPPHVQKSVNNDMIVTDNNGAVKFPQLCKFCDVRFSTCDNQKSCMSNCSITSICEKPQEVCVAVWRKNDENITLETVCHDPKLPYHDFILEDAASPKCIMKEKKKPGETFFMCSCSSDECNDNIIFSEEYNTSNPDGGGGSGGGGSVSLTCLVKGFYPSDIAVEWESNGQPENNYKTTPPVLDSDGSFFLYSKLTVDKSRWQQGNVFSCSVMHEALHNHYTQKSLSLSPGK
light: B1 light
notes: IgG1; also called PDL1-TGFbR2-3A (IgG1); PDL1-TGFbR2-3A-IgG1

- Kd [1]: 633 nM
- Kd [12]: 2.41 nM
- koff [12]: 0.00103 s⁻¹
- kon [12]: 429000 M⁻¹ s⁻¹
- Kd [3]: 130 nM
- Kd [13]: 1180 nM
- Kd [4]: 326 nM
- Kd [5]: 2350 nM
- Kd [6]: 2.94 nM
- Kd [14]: 84.6 nM
B3: PD1-PL1-3F2-FV3A-IgG1 (bispecific antibody)
heavy: EVQLVESGGGLVQPGGSLRLSCAASGFTFSSYSMSWVRQAPGKRLEWVAHISSGGSSTYYPDTVKGRFTISRDNSKNTLYLQMNSLRAEDTAMYYCTRQFYYGSSFWYFDVWGAGTTVTVSSASTKGPSVFPLAPSSKSTSGGTAALGCLVKDYFPEPVTVSWNSGALTSGVHTFPAVLQSSGLYSLSSVVTVPSSSLGTQTYICNVNHKPSNTKVDKKVEPKSCDKTHTCPPCPAPELLGGPSVFLFPPKPKDTLMISRTPEVTCVVVDVSHEDPEVKFNWYVDGVEVHNAKTKPREEQYNSTYRVVSVLTVLHQDWLNGKEYKCKVSNKALPAPIEKTISKAKGQPREPQVYTLPPSREEGGGGSGGGGSQVQLQESGPGLVKPSETLSLTCTVSGYSITSGYNWHWIRQFPGNCLEWMGYIHHSSITNYNPSLKSRITISRDTSKNQFSLKLSSVTAADTATYYCAREGYDYDWFAYWGQGTLVTVSSASTGGGGSGGGGSGGGGSGGGGSDIVLTQSPDFQSVTPKEKVTLSCRASQSISNNLHWYQQKPDESPKLLIKYASQSISGIPSRFSGSGSGTDFTLTINSVEAEDFAMYFCQQSKSWPFTFGCGTRLEIKGGGGSGGGGSVSLTCLVKGFYPSDIAVEWESNGQPENNYKTTPPVLDSDGSFFLYSKLTVDKSRWQQGNVFSCSVMHEALHNHYTQKSLSLSPGK
light: DNVLTQSPATLSVSPGERATLSCKASQSVDFDGDSYMNWYQQKPGQPPRLLIYAASNLESGIPARFSGSGSGTDFTLTISSVEPEDFATYYCQQSNEDPPTFGGGTKVEIKRTVAAPSVFIFPPSDEQLKSGTASVVCLLNNFYPREAKVQWKVDNALQSGNSQESVTEQDSKDSTYSLSSTLTLSKADYEKHKVYACEVTHQGLSSPVTKSFNRGEC
notes: IgG1; also called G4
